Measurements as given in patent US20210108251, “DETECTION OF ENDONUCLEASE ACTIVITY” (AARHUS UNIVERSITET, published 2021).

B1: REN2-PB-EcoRI (structured_DNA)
DNA: ATTTCCAGAATTCTGGGTATAGGAACTTCGAACGACTCGACTGTGAAGATCGCTTATCGAGTCGTTCGAAGTTCCTATACCCAGAATTCTGGAAAT
modifications: 5'-amine and 3'-amine
B2: REN2-ID33-EcoRI (structured_DNA)
DNA: ATTTGACGAATTCGTCGTATAGGAACTTCGAACGACTCGCCTCAATGCACATGTTTGGCTCCCGAGTCGTTCGAAGTTCCTATACGACGAATTCGTCAAAT
modifications: 5'-amine and 3'-amine

How the values were obtained:
EcoRI [1] = biological target: T1, EcoRI (UniProt P00642 P00642:2-277); assay: cleavage_in_vitro; assayed as pair with SEQ 1; cleavage-ligation-RCA readout; Mg acetate pH 7.9, 37 C; std error 6.6; details: tags: Thermo Scientific; chain copies: 2; hairpin
T1 sequence (P00642 2-277, one chain of several): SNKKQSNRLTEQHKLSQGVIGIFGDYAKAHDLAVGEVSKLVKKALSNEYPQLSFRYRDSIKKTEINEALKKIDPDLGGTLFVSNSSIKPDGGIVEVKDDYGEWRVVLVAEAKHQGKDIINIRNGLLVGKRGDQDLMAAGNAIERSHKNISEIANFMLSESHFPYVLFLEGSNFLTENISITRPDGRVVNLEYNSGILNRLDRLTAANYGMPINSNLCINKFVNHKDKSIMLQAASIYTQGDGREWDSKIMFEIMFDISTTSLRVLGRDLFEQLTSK
Method: (§1) For detection of EcoRI activity, 50 pmol of each of the two substrates REN2-ID33-EcoRI (SEQ ID NO: 1) and REN2-PB-EcoRI (SEQ ID NO: 2) were incubated for 1 h at 37° C. either with or without 10 units of EcoRI. The reaction was done in a reaction buffer containing 500 mM Potassium Acetate; 200 mM Tris-acetate; 100 mM Magnesium Acetate; and 1 mg/ml BSA (pH 7.9). The reaction volume was 50 μL. After incubation, the restriction endonuclease was inactivated by heating to 94° C. for 10 minutes. ATP was added to a final concentration of 10 mM and 1 unit of T4 ligase (Invitrogen) was added. The reaction mixture was then incubated over night at room temperature.
(§2) The two substrate molecules carrying the EcoRI cleavage sites (see materials and methods) were incubated with or without purified enzyme and subjected to the protocol as described in materials and methods (see also FIG. 1A). After counting the signals, the fold increase over background (no enzyme) was calculated.

EcoRI [2] = biological target: T1, EcoRI; assay: cleavage_in_vitro; assayed as pair with SEQ 2; cleavage-ligation-RCA readout; Mg acetate pH 7.9, 37 C; std error 6.6; details: tags: Thermo Scientific; chain copies: 2; hairpin
Method: as §1, §2

| Binder | activity (EcoRI [1]) [fold over no enzyme] | activity (EcoRI [2]) [fold over no enzyme] |
| --- | --- | --- |
| B1 | 110 | – |
| B2 | – | 110 |
